Ends that are not written are not given here.
Target: T1, RNF31 PUB domain (Homo sapiens, UniProt Q96EP0)
T1 construct: MBP-TEV (N, cleaved yes); made in house; host or cells: E. coli BL21 (DE3) pLysS
T1 sequence (Q96EP0 1-179): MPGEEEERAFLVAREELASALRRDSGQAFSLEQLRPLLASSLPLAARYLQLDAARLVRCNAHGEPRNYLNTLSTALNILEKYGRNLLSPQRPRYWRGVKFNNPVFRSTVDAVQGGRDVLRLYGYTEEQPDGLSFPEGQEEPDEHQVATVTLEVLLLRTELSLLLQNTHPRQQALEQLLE
Test: Phage Library Screening with NGS, RNF31 PUB domain
Format: binding
Details: for Phage library screen NGS readout, Target Concentration 10 / Phage library screen NGS readout, Target Concentration 30 / Phage library screen NGS readout, Target Concentration 100 / Phage library screen NGS readout, Target Concentration 300 / Phage library screen NGS readout, Target Concentration 1000: RNF31 PUB domain clusters C41-C45; for Phage library screen NGS readout, BLANK: clusters C41-C45

[1] = target concentration 1000, first column
[2] = target concentration 1000, second column

DPALWDCLYAADACITS (not fully specified; cysteine pairing not given here)
Phage library screen NGS readout, Target Concentration 10: 0
Phage library screen NGS readout, Target Concentration 30: 1
Phage library screen NGS readout, Target Concentration 100: 0
Phage library screen NGS readout, Target Concentration 300: 4
Phage library screen NGS readout, Target Concentration 1000 [1]: 8
Phage library screen NGS readout, Target Concentration 1000 [2]: 12
Phage library screen NGS readout, BLANK (column 1 of 5): 0
Phage library screen NGS readout, BLANK (column 2 of 5): 2
Phage library screen NGS readout, BLANK (column 3 of 5): 1
Phage library screen NGS readout, BLANK (column 4 of 5): 0
Phage library screen NGS readout, BLANK (column 5 of 5): 0

DPAMEWCWDAAVFCTYS
Phage library screen NGS readout, Target Concentration 10: 1
Phage library screen NGS readout, Target Concentration 30: 1
Phage library screen NGS readout, Target Concentration 100: 0
Phage library screen NGS readout, Target Concentration 300: 6
Phage library screen NGS readout, Target Concentration 1000 [1]: 18
Phage library screen NGS readout, Target Concentration 1000 [2]: 16
Phage library screen NGS readout, BLANK (column 1 of 5): 2
Phage library screen NGS readout, BLANK (column 2 of 5): 1
Phage library screen NGS readout, BLANK (column 3 of 5): 0
Phage library screen NGS readout, BLANK (column 4 of 5): 1
Phage library screen NGS readout, BLANK (column 5 of 5): 1

DPAMIDCFLAAQVCATY (not fully specified; cysteine pairing not given here)
Phage library screen NGS readout, Target Concentration 10: 0
Phage library screen NGS readout, Target Concentration 30: 0
Phage library screen NGS readout, Target Concentration 100: 0
Phage library screen NGS readout, Target Concentration 300: 1
Phage library screen NGS readout, Target Concentration 1000 [1]: 6
Phage library screen NGS readout, Target Concentration 1000 [2]: 6
Phage library screen NGS readout, BLANK (column 1 of 5): 0
Phage library screen NGS readout, BLANK (column 2 of 5): 0
Phage library screen NGS readout, BLANK (column 3 of 5): 0
Phage library screen NGS readout, BLANK (column 4 of 5): 0
Phage library screen NGS readout, BLANK (column 5 of 5): 0

DPAMQDCQLAALVCTTY
Phage library screen NGS readout, Target Concentration 10: 0
Phage library screen NGS readout, Target Concentration 30: 1
Phage library screen NGS readout, Target Concentration 100: 0
Phage library screen NGS readout, Target Concentration 300: 1
Phage library screen NGS readout, Target Concentration 1000 [1]: 6
Phage library screen NGS readout, Target Concentration 1000 [2]: 6
Phage library screen NGS readout, BLANK (column 1 of 5): 0
Phage library screen NGS readout, BLANK (column 2 of 5): 0
Phage library screen NGS readout, BLANK (column 3 of 5): 0
Phage library screen NGS readout, BLANK (column 4 of 5): 0
Phage library screen NGS readout, BLANK (column 5 of 5): 0

DPAMQECMDAAIMCTYA
Phage library screen NGS readout, Target Concentration 10: 0
Phage library screen NGS readout, Target Concentration 30: 0
Phage library screen NGS readout, Target Concentration 100: 0
Phage library screen NGS readout, Target Concentration 300: 4
Phage library screen NGS readout, Target Concentration 1000 [1]: 14
Phage library screen NGS readout, Target Concentration 1000 [2]: 8
Phage library screen NGS readout, BLANK (column 1 of 5): 0
Phage library screen NGS readout, BLANK (column 2 of 5): 2
Phage library screen NGS readout, BLANK (column 3 of 5): 0
Phage library screen NGS readout, BLANK (column 4 of 5): 0
Phage library screen NGS readout, BLANK (column 5 of 5): 0

DPANFTCRVAADVCSTY
Phage library screen NGS readout, Target Concentration 10: 0
Phage library screen NGS readout, Target Concentration 30: 0
Phage library screen NGS readout, Target Concentration 100: 3
Phage library screen NGS readout, Target Concentration 300: 3
Phage library screen NGS readout, Target Concentration 1000 [1]: 26
Phage library screen NGS readout, Target Concentration 1000 [2]: 12
Phage library screen NGS readout, BLANK (column 1 of 5): 0
Phage library screen NGS readout, BLANK (column 2 of 5): 0
Phage library screen NGS readout, BLANK (column 3 of 5): 1
Phage library screen NGS readout, BLANK (column 4 of 5): 0
Phage library screen NGS readout, BLANK (column 5 of 5): 0

DPAQDQCISAAVLCTYT
Phage library screen NGS readout, Target Concentration 10: 0
Phage library screen NGS readout, Target Concentration 30: 0
Phage library screen NGS readout, Target Concentration 100: 0
Phage library screen NGS readout, Target Concentration 300: 22
Phage library screen NGS readout, Target Concentration 1000 [1]: 44
Phage library screen NGS readout, Target Concentration 1000 [2]: 37
Phage library screen NGS readout, BLANK (column 1 of 5): 0
Phage library screen NGS readout, BLANK (column 2 of 5): 0
Phage library screen NGS readout, BLANK (column 3 of 5): 1
Phage library screen NGS readout, BLANK (column 4 of 5): 0
Phage library screen NGS readout, BLANK (column 5 of 5): 0

DPAQDWCMYAAYECDAH
Phage library screen NGS readout, Target Concentration 10: 0
Phage library screen NGS readout, Target Concentration 30: 0
Phage library screen NGS readout, Target Concentration 100: 0
Phage library screen NGS readout, Target Concentration 300: 2
Phage library screen NGS readout, Target Concentration 1000 [1]: 7
Phage library screen NGS readout, Target Concentration 1000 [2]: 9
Phage library screen NGS readout, BLANK (column 1 of 5): 0
Phage library screen NGS readout, BLANK (column 2 of 5): 0
Phage library screen NGS readout, BLANK (column 3 of 5): 2
Phage library screen NGS readout, BLANK (column 4 of 5): 1
Phage library screen NGS readout, BLANK (column 5 of 5): 1

DPAQEACWDAAIMCTYR
Phage library screen NGS readout, Target Concentration 10: 0
Phage library screen NGS readout, Target Concentration 30: 0
Phage library screen NGS readout, Target Concentration 100: 0
Phage library screen NGS readout, Target Concentration 300: 29
Phage library screen NGS readout, Target Concentration 1000 [1]: 56
Phage library screen NGS readout, Target Concentration 1000 [2]: 80
Phage library screen NGS readout, BLANK (column 1 of 5): 0
Phage library screen NGS readout, BLANK (column 2 of 5): 0
Phage library screen NGS readout, BLANK (column 3 of 5): 0
Phage library screen NGS readout, BLANK (column 4 of 5): 0
Phage library screen NGS readout, BLANK (column 5 of 5): 0

DPAQEECFEAAVFCSYY
Phage library screen NGS readout, Target Concentration 10: 2
Phage library screen NGS readout, Target Concentration 30: 0
Phage library screen NGS readout, Target Concentration 100: 2
Phage library screen NGS readout, Target Concentration 300: 7
Phage library screen NGS readout, Target Concentration 1000 [1]: 36
Phage library screen NGS readout, Target Concentration 1000 [2]: 20.49
Phage library screen NGS readout, BLANK (column 1 of 5): 0
Phage library screen NGS readout, BLANK (column 2 of 5): 0
Phage library screen NGS readout, BLANK (column 3 of 5): 0
Phage library screen NGS readout, BLANK (column 4 of 5): 0
Phage library screen NGS readout, BLANK (column 5 of 5): 1

DPAQHECIYAAWDCDML
Phage library screen NGS readout, Target Concentration 10: 1
Phage library screen NGS readout, Target Concentration 30: 1
Phage library screen NGS readout, Target Concentration 100: 1
Phage library screen NGS readout, Target Concentration 300: 5
Phage library screen NGS readout, Target Concentration 1000 [1]: 6
Phage library screen NGS readout, Target Concentration 1000 [2]: 8
Phage library screen NGS readout, BLANK (column 1 of 5): 3
Phage library screen NGS readout, BLANK (column 2 of 5): 2
Phage library screen NGS readout, BLANK (column 3 of 5): 0
Phage library screen NGS readout, BLANK (column 4 of 5): 1
Phage library screen NGS readout, BLANK (column 5 of 5): 0

DPAQMECIDAAIMCSYT
Phage library screen NGS readout, Target Concentration 10: 0
Phage library screen NGS readout, Target Concentration 30: 0
Phage library screen NGS readout, Target Concentration 100: 0
Phage library screen NGS readout, Target Concentration 300: 3
Phage library screen NGS readout, Target Concentration 1000 [1]: 5
Phage library screen NGS readout, Target Concentration 1000 [2]: 5
Phage library screen NGS readout, BLANK (column 1 of 5): 0
Phage library screen NGS readout, BLANK (column 2 of 5): 0
Phage library screen NGS readout, BLANK (column 3 of 5): 0
Phage library screen NGS readout, BLANK (column 4 of 5): 0
Phage library screen NGS readout, BLANK (column 5 of 5): 0

DPAQYQCDIAAQVCSTY
Phage library screen NGS readout, Target Concentration 10: 0
Phage library screen NGS readout, Target Concentration 30: 0
Phage library screen NGS readout, Target Concentration 100: 0
Phage library screen NGS readout, Target Concentration 300: 4
Phage library screen NGS readout, Target Concentration 1000 [1]: 12
Phage library screen NGS readout, Target Concentration 1000 [2]: 10
Phage library screen NGS readout, BLANK (column 1 of 5): 0
Phage library screen NGS readout, BLANK (column 2 of 5): 0
Phage library screen NGS readout, BLANK (column 3 of 5): 0
Phage library screen NGS readout, BLANK (column 4 of 5): 0
Phage library screen NGS readout, BLANK (column 5 of 5): 0

DPAQYQCWNAAMSCSYS
Phage library screen NGS readout, Target Concentration 10: 1
Phage library screen NGS readout, Target Concentration 30: 1
Phage library screen NGS readout, Target Concentration 100: 3
Phage library screen NGS readout, Target Concentration 300: 3
Phage library screen NGS readout, Target Concentration 1000 [1]: 7
Phage library screen NGS readout, Target Concentration 1000 [2]: 4
Phage library screen NGS readout, BLANK (column 1 of 5): 1
Phage library screen NGS readout, BLANK (column 2 of 5): 0
Phage library screen NGS readout, BLANK (column 3 of 5): 0
Phage library screen NGS readout, BLANK (column 4 of 5): 3
Phage library screen NGS readout, BLANK (column 5 of 5): 2

From patent publication US20240376151A1, “STAPLED PEPTIDES AND METHODS THEREOF” (FOG PHARMACEUTICALS, INC., priority 2022, published 2024)
